Measurements as given in article PMC2749211.

Molecular target: SMU.440, hypothetical protein from Streptococcus mutans (Streptococcus mutans)
Test: SEC; gel filtration on HiLoad Superdex 75, 20 mM Tris-HCl pH 7.5, 150 mM NaCl

Work on “SMU.440, hypothetical protein from Streptococcus mutans (natural protein)” yielded a stoichiometry N of 2.
